Data taken from patent publication US8287850B2, “Conjugates of hydroxyalkyl starch and a protein, prepared by reductive amination” (Fresenius Kabi Deutschland GmbH, priority 2004, dated 2012).

B1: HES-GCSF 50/0.7: hG-CSF conjugated with AldehydoHES50/0.7 of example 6.1(j), prepared in example 6.2(b) (conjugate, UniProt P09919 31-207, looked up)
Granulocyte …: TPLGPASSLPQSFLLKCLEQVRKIQGDGAALQEKLVSECATYKLCHPEELVLLGHSLGIPWAPLSSCPSQALQLAGCLSQLHSGLFLYQGLLQALEGISPELGPTLDTLQLDVADFATTIWQQMEELGMAPALQPTQGAMPAFASAFQRRAGGVLVASHLQSFLEVSYRVLRHLAQP
modifications: hydroxyethyl starch conjugate HES50/0.7
B2: HES-GCSF 10/0.4: hG-CSF conjugated with AldehydoHES10/0.4 of example 6.1(b), prepared in example 6.2(b) (conjugate, UniProt P09919 31-207, looked up)
Granulocyte …: TPLGPASSLPQSFLLKCLEQVRKIQGDGAALQEKLVSECATYKLCHPEELVLLGHSLGIPWAPLSSCPSQALQLAGCLSQLHSGLFLYQGLLQALEGISPELGPTLDTLQLDVADFATTIWQQMEELGMAPALQPTQGAMPAFASAFQRRAGGVLVASHLQSFLEVSYRVLRHLAQP
modifications: hydroxyethyl starch conjugate HES10/0.4
B3: HES-GCSF 30/0.4: hG-CSF conjugated with AldehydoHES30/0.4 of example 6.1(f), prepared in example 6.2(d) (conjugate, UniProt P09919 31-207, looked up)
Granulocyte …: TPLGPASSLPQSFLLKCLEQVRKIQGDGAALQEKLVSECATYKLCHPEELVLLGHSLGIPWAPLSSCPSQALQLAGCLSQLHSGLFLYQGLLQALEGISPELGPTLDTLQLDVADFATTIWQQMEELGMAPALQPTQGAMPAFASAFQRRAGGVLVASHLQSFLEVSYRVLRHLAQP
modifications: hydroxyethyl starch conjugate HES30/0.4
B4: Mock-incubation: reaction control: hG-CSF incubated with 197 mg/ml non-functionalized HES50/0.7 (MW 47,000 D, DS 0.76) (protein, UniProt P09919 31-207, looked up)
Granulocyte …: TPLGPASSLPQSFLLKCLEQVRKIQGDGAALQEKLVSECATYKLCHPEELVLLGHSLGIPWAPLSSCPSQALQLAGCLSQLHSGLFLYQGLLQALEGISPELGPTLDTLQLDVADFATTIWQQMEELGMAPALQPTQGAMPAFASAFQRRAGGVLVASHLQSFLEVSYRVLRHLAQP
modifications: mixed with non-functionalized HES
B5: Neulasta: non-modified Neulasta (Amgen) (conjugate, UniProt P09919 31-207, looked up)
Granulocyte …: TPLGPASSLPQSFLLKCLEQVRKIQGDGAALQEKLVSECATYKLCHPEELVLLGHSLGIPWAPLSSCPSQALQLAGCLSQLHSGLFLYQGLLQALEGISPELGPTLDTLQLDVADFATTIWQQMEELGMAPALQPTQGAMPAFASAFQRRAGGVLVASHLQSFLEVSYRVLRHLAQP
modifications: pegfilgrastim; 20 kDa PEG
B6: HES-GCSF 10/0.7: hG-CSF conjugated with AldehydoHES10/0.7 of example 6.1(d), prepared in example 6.2(b) (conjugate, UniProt P09919 31-207, looked up)
Granulocyte …: TPLGPASSLPQSFLLKCLEQVRKIQGDGAALQEKLVSECATYKLCHPEELVLLGHSLGIPWAPLSSCPSQALQLAGCLSQLHSGLFLYQGLLQALEGISPELGPTLDTLQLDVADFATTIWQQMEELGMAPALQPTQGAMPAFASAFQRRAGGVLVASHLQSFLEVSYRVLRHLAQP
modifications: hydroxyethyl starch conjugate HES10/0.7
B7: Neupogen: non-modified Neupogen (Amgen), rhG-CSF filgrastim, non-glycosylated, E. coli (protein, UniProt P09919 31-207, looked up)
Granulocyte …: TPLGPASSLPQSFLLKCLEQVRKIQGDGAALQEKLVSECATYKLCHPEELVLLGHSLGIPWAPLSSCPSQALQLAGCLSQLHSGLFLYQGLLQALEGISPELGPTLDTLQLDVADFATTIWQQMEELGMAPALQPTQGAMPAFASAFQRRAGGVLVASHLQSFLEVSYRVLRHLAQP
modifications: filgrastim, N-terminal Met
notes: non-modified Neupogen (Amgen), rhG-CSF filgrastim, non-glycosylated, E. coli

Key:
[1] = In-vivo half-life of alpha1AT samples in mice (alpha1AT-ELISA); details: 100 μl of 50 μg/ml i.v. tail vein, female BALB/c mice
Description: Female mice aged 8-10 weeks (BALB/cOlaHsd, Harlan GmbH, Borchen, Germany) were utilized as test organism (42 mice, 14 per sample). The “is bodyweight” of each animal was detected right before administration of the different sample solutions. 100 μl of a 50 μg/ml solution of the samples outlined below in a puffer pH=7.2 (20 mmol sodium phosphate, 150 mmol sodium chloride) were injected intravenously in the tail vein of the mice.
At 1, 2, 4, 10, 24, 31, […], hours after injection, two mice of each group were killed and whole blood samples (˜500 μl) were withdrawn from the heart of the animals. Serum was prepared using Microvette® 500 Z-Gel (Sarstedt, Nümbrecht, Germany). The serum samples were stored at −80° C. until the beginning of the alpha1AT concentration measurements.
alpha1AT concentrations were detected using a commercially available alpha1AT-ELISA (Immundiagnostik, Bensheim, Germany) following the manufacturers instructions.

[2] = tested on: normocythaemic mouse system; assay: EPO-bioassay in the normocythaemic mouse system; assay type: in vivo
Description: Quantitative determination of EPO protein was performed by measuring UV absorption at 280 nm according to the Eur. Phar. (European Pharmacopeia 4, Monography 01/2002: 1316: erythropoietin concentrated solution) in a cuvette with 1 cm path length. In addition, EPO was quantitated by applying a RP-HPLC method using a RP-C4 column (Vydac Protein C4, Cat.#214TP5410, Grace Vydac, Ca, US); the HPLC method was calibrated using the erythropoietin BRP 1 reference standard (European Pharmacopeia, Conseil de l'Europe B.P. 907-F67029, Strasbourg Cedex 1).
The EPO-bioassay in the normocythaemic mouse system was performed according to the procedures described in the European Pharmacopeia 4, Monography 01/2002:1316: Erythropoietin concentrated solution and Ph. Eur. Chapter 5.3: “Statistical Analysis of Results of Biological Assays and Tests”; For the HES-modified EPO according to example 7.3 a value for the specific activity of 418 500 units per mg EPO of protein was measured indicating an approximately 4-5 fold higher specific activity when compared to the EPO starting material.

[3] = In vivo half-life of G-CSF samples in mice (ELISA of plasma); details: 100 μg per kg i.v. tail vein, female BALB/c mice
Description: Female mice BALB/cOlaHsd (Harlan GmbH/Borchen) were used. On the day of administration, the is weights of the animals were measured (19-22 g). 100 μg per kg body weight of the chemically modified rh-G-CSF sample as prepared in Example 6.2(b) as well as Neupogen® and Neulasta® (Amgen) samples were each injected intravenously in the tail vein of nine mice. At 1, 3, 6, 11, 22, 30, 49, 72 hours after injection (see table below), samples of approx. 150 μl whole blood were taken from the tail vein or the retrobulbar venous plexus from 3 mice of the respective group using capillaries containing sodium-heparin (Hirschmann, Eberstadt) and stored on ice until preparation of plasma.
Whole blood was centrifuged for 10 minutes at 2000 g. Plasma was transferred to another tube and recentrifuged for 5 min at 3500 g. Aliquots were stored at −80° C. until the day of analysis. The amount of G-CSF in the plasma samples were quantified by utilizing a ELISA (R&D GambH, Wiesbaden) method, following the instruction of the manufacturer.

mouse NFS-60 cells = assay: Mitogenicity of G-CSF variants for mouse NFS-60 cells (Example 6.3); assay type: cell-based; details: 3 days
Description: G-CSF is known for its specific effects on the proliferation, differentiation and activation of hematopoietic cells of the neutrophilic granulocyte lineage. The mitogenic capacity of G-CSF variants was tested using mouse NFS-60 cells (N. Shirafuji et al., Exp. Hematol. 1989, 17, 116-119). Cells grown in RPMI medium with 10% fetal calf serum (Gibco INVITROGEN GmbH, Karlsruhe, D) containing 5-10% WEHI-3B (DSMZ, Braunschweig, D; cultivated as described by the DSMZ) conditioned medium as source of exogenous IL-3 were harvested by centrifugation, washed and aliquoted at 100,000 cells per well in a 24-well plate. Cells were allowed to adapt for 1 hour at 37° C. in RPMI medium without WEHI-3B conditioned media before G-CSF growth factor samples diluted in the same media were added. NFS-60 cells were exposed to purified G-CSF variants (purification according to examples 3A 1 und 2, protein quantification according to example 3B1):
“Mock incubation” (=reaction control, 197 mg/ml HES50/0.7, MW 47,000 D, DS 0.76, Supramol Parenteral Colloids GmbH, Rosbach Rodheim, Germany), for 3 days at 37° C. and then the cells were electronically counted (Casy TT Cell Counter, Schärfe System, Reutlingen, D).
In all cases, the amounts of protein given in the table below and FIG. 21 represent the G-CSF content of the conjugates only. […] All variants reached the same maximum stimulation level at a concentration of 250 pg/ml.

[4] = Conc. 250 pg/ml (G-CSF content)

| Molecule | Plasma half-life in mice [1] [h] | Calculated specific activity of EPO sample (based on A280 and RP-HPLC determination) ([2]; mouse, in vivo) [U/mg] | higher specific activity when compared to the EPO starting material ([2]; mouse, in vivo) | specific activity ([2]; per mg EPO of protein) | half-life [3] [h] | Proliferation of mouse NFS-60 cells, induced by G-CSF variants (mouse NFS-60 cells; Conc. 5 pg/ml (G-CSF content)) | Proliferation of mouse NFS-60 cells, induced by G-CSF variants (mouse NFS-60 cells; Conc. 10 pg/ml (G-CSF content)) | Proliferation of mouse NFS-60 cells, induced by G-CSF variants (mouse NFS-60 cells; Conc. 25 pg/ml (G-CSF content)) | Proliferation of mouse NFS-60 cells, induced by G-CSF variants (mouse NFS-60 cells; Conc. 50 pg/ml (G-CSF content)) | Proliferation of mouse NFS-60 cells, induced by G-CSF variants (mouse NFS-60 cells; [4]) |
| --- | --- | --- | --- | --- | --- | --- | --- | --- | --- | --- |
| Sample 3: plasma derived h alpha1 AT (SERVA Electrophoresis GmbH) [reference compound] | 3.2 | – | – | – | – | – | – | – | – | – |
| EPO HES according to example 7.3: recombinant human EPO conjugated with aldehydo-HES of example 7.2 (MW 57,000 D, DS 0.76) by reductive amination | – | 418500 | 4-5 fold | 418 500 units per mg | – | – | – | – | – | – |
| EPO starting material (Reaction control A): EPO reacted with aldehydo-HES without sodium cyanoborohydride (example 7.4) | – | 88500 | – | – | – | – | – | – | – | – |
| EPO starting material (not modified): recombinant human EPO, essentially same characteristics as Erypo or NeoRecormon | – | 89000 | – | – | – | – | – | – | – | – |
| B1 | – | – | – | – | 5.1 | 0.70 | 0.97 | 1.68 | 2.15 | 2.32 |
| B2 | – | – | – | – | – | 0.97 | 1.40 | 2.17 | 2.67 | 2.75 |
| B3 | – | – | – | – | – | 1.21 | 1.62 | 2.28 | 2.50 | 2.60 |
| B4 | – | – | – | – | – | 1.31 | 1.91 | 2.38 | 2.47 | 2.41 |
| B5 | – | – | – | – | 5.2 | 0.80 | 1.12 | 1.83 | 2.25 | 2.33 |
| B6 | – | – | – | – | – | 0.93 | 1.44 | 2.14 | 2.41 | 2.41 |
| B7 | – | – | – | – | 1.2 | 1.20 | 1.69 | 2.33 | 2.49 | 2.41 |
